Laboratory results as given in patent US20230235057A1.

Assays:
[1] = target: human TGFβ1 protein (Sinobiological, 10804-H08H) (human) (UniProt P01137); assay: ELISA with reference to Example 5, plate coated with human TGFβ1
[2] = target: human TGFβ1 protein (Sinobiological, 10804-H08H) (human) (UniProt P01137); assay: ELISA with reference to Example 5, reference sample
[3] = target: human TGFβ1 protein (Sinobiological, 10804-H08H) (human) (UniProt P01137); assay: ELISA, plate coated with human TGFβ1, HRP-goat anti-human IgG detection

Sequence of PD1/TGFβRII fusion protein (heavy): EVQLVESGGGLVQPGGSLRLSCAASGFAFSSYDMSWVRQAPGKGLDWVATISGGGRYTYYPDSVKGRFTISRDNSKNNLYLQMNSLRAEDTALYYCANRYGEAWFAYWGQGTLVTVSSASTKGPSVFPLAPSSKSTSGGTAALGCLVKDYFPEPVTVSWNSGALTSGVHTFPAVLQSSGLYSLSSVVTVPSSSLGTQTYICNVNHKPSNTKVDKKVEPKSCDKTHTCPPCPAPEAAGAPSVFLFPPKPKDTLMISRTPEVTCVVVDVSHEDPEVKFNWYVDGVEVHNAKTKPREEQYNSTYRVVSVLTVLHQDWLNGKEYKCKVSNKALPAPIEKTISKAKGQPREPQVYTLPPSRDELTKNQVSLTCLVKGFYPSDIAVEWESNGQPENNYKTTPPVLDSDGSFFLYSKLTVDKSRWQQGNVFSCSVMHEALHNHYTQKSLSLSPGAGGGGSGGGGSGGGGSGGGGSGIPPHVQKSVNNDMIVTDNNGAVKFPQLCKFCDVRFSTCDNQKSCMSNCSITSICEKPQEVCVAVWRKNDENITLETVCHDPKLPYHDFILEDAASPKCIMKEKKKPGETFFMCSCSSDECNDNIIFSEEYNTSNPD
Sequence of PD1/TGFβRII fusion protein (light): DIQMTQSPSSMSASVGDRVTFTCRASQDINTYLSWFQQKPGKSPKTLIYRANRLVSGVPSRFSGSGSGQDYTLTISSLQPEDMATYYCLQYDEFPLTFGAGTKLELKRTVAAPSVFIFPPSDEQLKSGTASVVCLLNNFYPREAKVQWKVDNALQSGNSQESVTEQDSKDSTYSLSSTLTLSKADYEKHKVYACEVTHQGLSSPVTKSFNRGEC

Q: For PD1/TGFβRII fusion protein, which EC50 [1] is on record?
A: 0.0617 µg/mL

Q: And the Binding activity (EC50 of control / EC50 of test sample) [2]?
A: 100%

Q: And the EC50 [3]?
A: 398 pM
